Experimental data taken from publication PMC3995750, “Improved production of recombinant human Fas ligand extracellular domain in Pichia pastoris: yield enhancement using disposable culture-bag and its application to site-specific chemical modifications” (BMC Biotechnology, 2014).

T1: wild-type human Fas receptor extracellular domain fused to human IgG1-Fc domain with a thrombin cleavage site … (human, UniProt P25445 26-173)
T1 construct: human Fas receptor, extracellular domain; A thrombin cleavage site lies between the receptor part and the Fc; also called wild-type hFasRECD-T-Fc; hFasRECD-T-Fc
T1 sequence (looked up): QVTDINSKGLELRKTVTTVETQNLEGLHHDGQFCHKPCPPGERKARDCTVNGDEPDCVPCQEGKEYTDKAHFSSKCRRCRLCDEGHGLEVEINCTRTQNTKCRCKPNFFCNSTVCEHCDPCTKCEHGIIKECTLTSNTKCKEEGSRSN

B1: NFG1CG4-tagged human Fas ligand extracellular domain (139-281, N184Q, N250Q), not conjugated (domain or fragment, UniProt P48023 139-281, looked up)
chain: EKKELRKVAHLTGKSNSRSMPLEWEDTYGIVLLSGVKYKKGGLVIQETGLYFVYSKVYFRGQSCNNLPLSHKVYMRNSKYPQDLVMMEGKMMSYCTTGQMWARSSYLGAVFQLTSADHLYVNVSELSLVNFEESQTFFGLYKL
modifications: cysteine in the N-terminal tag, partly in a possible inter-subunit disulfide bond
notes: human Fas ligand (281 aa), residues 139-281 with N184Q and N250Q; Made from the NFG5-hFasLECD gene by an insertion mutation that adds a cysteine in the (Gly)5 region of the tag; also called NFG1CG4-hFasLECD; source: Pichia pastoris GS115 (Mut+), secreted; 40-fold concentrated culture supernatant; partially purified by cation-exchange chromatography; not shown: FLAG-GlyCys(Gly)4, N-terminal, kept
B2: tag-free human Fas ligand extracellular domain (139-281, N184Q, N250Q), N-glycan untrimmed (domain or fragment, UniProt P48023 139-281, looked up)
chain: B1 chain
modifications: remaining N-glycans, untrimmed
notes: human Fas ligand (281 aa), extracellular domain with residues 103-138 deleted, i.e. residues 139-281, with N184Q and N250Q; Secreted with the S. cerevisiae alpha-factor prepro signal; also called tag-free hFasLECD; N-glycan untrimmed tag-free hFasLECD; source: Pichia pastoris GS115 (Mut+), secreted, purified (two rounds of cation-exchange chromatography)
B3: SUNBRIGHT ME-050MA conjugated NFG1CG4-hFasLECD (domain or fragment, human, UniProt P48023 139-281, looked up)
chain: B1 chain
modifications: cysteine in the N-terminal tag conjugated with SUNBRIGHT ME-050MA (linear methoxy polyethylene glycol of about 5 kDa with one maleimide group); a small fraction of subunits not conjugated
notes: human Fas ligand (281 aa), residues 139-281 with N184Q and N250Q; also called SUNBRIGHT ME-050MA adduct of NFG1CG4-hFasLECD; not shown: FLAG-GlyCys(Gly)4, N-terminal, kept
B4: N-terminal FLAG-(Gly)5 tagged human Fas ligand extracellular domain (aa 139-281, N184Q, N250Q) (domain or fragment, UniProt P48023 139-281, looked up)
chain: B1 chain
notes: human Fas ligand (281 aa), residues 139-281 with N184Q and N250Q; Positive control of the co-immunoprecipitation; also called NFG5-hFasLECD; not shown: FLAG-(Gly)5, N-terminal, kept
B5: NFG1CG4-hFasLECD cross-linked with SUNBRIGHT DE-100MA, peak II of the size-exclusion chromatography (domain or fragment, human, UniProt P48023 139-281, looked up)
chain: B1 chain
modifications: cysteine in the N-terminal tag conjugated with SUNBRIGHT DE-100MA (linear polyethylene glycol of about 10 kDa with a maleimide group at either end): two subunits cross-linked by one molecule, or one subunit conjugated with one molecule; unreacted cysteines capped with N-Ethylmaleimide
notes: human Fas ligand (281 aa), residues 139-281 with N184Q and N250Q; not shown: FLAG-GlyCys(Gly)4, N-terminal, kept
B6: N-Ethylmaleimide conjugated NFG1CG4-hFasLECD (domain or fragment, human, UniProt P48023 139-281, looked up)
chain: B1 chain
modifications: cysteine in the N-terminal tag conjugated with N-Ethylmaleimide
notes: human Fas ligand (281 aa), residues 139-281 with N184Q and N250Q; also called N-Ethylmaleimide adduct of NFG1CG4-hFasLECD; not shown: FLAG-GlyCys(Gly)4, N-terminal, kept
B7: N-glycan trimmed tag-free human Fas ligand extracellular domain (139-281, N184Q, N250Q) (domain or fragment, UniProt P48023 139-281, looked up)
chain: B1 chain
modifications: N-glycans trimmed with Endo Hf
notes: human Fas ligand (281 aa), residues 139-281 with N184Q and N250Q; Same chain as m1 after Endo Hf digestion; also called N-glycan trimmed tag-free hFasLECD; source: Pichia pastoris GS115 (Mut+), secreted, purified; digested with Endo Hf, Con A-agarose flow-through, Mono S cation-exchange
B8: NFG1CG4-hFasLECD cross-linked with SUNBRIGHT DE-100MA, peak III of the size-exclusion chromatography (domain or fragment, human, UniProt P48023 139-281, looked up)
chain: B1 chain
modifications: cysteine in the N-terminal tag conjugated with SUNBRIGHT DE-100MA (linear polyethylene glycol of about 10 kDa with a maleimide group at either end): two subunits cross-linked by one molecule, or one subunit conjugated with one molecule; unreacted cysteines capped with N-Ethylmaleimide
notes: as for B5

Target: the molecule itself
Assay: SDS-PAGE with and without 2-mercaptoethanol; partially purified NFG1CG4-hFasLECD (main peak of the 1st cation-exchange chromatography, concentrated) in sample buffer with or without 2-mercaptoethanol; inter-subunit disulfide bond
Conditions: not given

Binding result, binds:
B1

Each binder was assayed against T1, wild-type human Fas receptor … (assay: co-IP; receptor-mediated ligand immunoprecipitation: purified hFasLECD sample with hFasRECD-T-Fc protein and Protein A-agarose beads (immunoprecipitation kit, Roche); precipitate analysed by SDS-PAGE). Conditions: both partners purified.

Binding result, binds:
B2
B3
B4
B5
B6
B7
B8
